Results as given in the supplement of paper PMC7877785.
± gives the uncertainty stated by the source.

Assay: self-splicing fitness, log relative to wild type (ln ratio); higher = more splicing; Tetrahymena group I intron in knt gene, E. coli kanamycin selection, DiMSum; sequences stand for … in CUCUCU…GGAGGGAAAAGUUAUCAGGCAUGCACCUGGUAGCUAGUCUUUAAACCAAUAGAUUGCAUCGGUUUAAAAGGCAAGACCGUCAAAUUGCGGGAAAGGGGUCAACAGCCGUUCAGUACCAAGUCUCAGGGGAAACUUUGAGAUGGCCUUGCAAAGGGUAUGGUAAUAAGCUGACGGACAUGGUCCUAACCACGCAGCCAAGUCCUAAGUCAACAGAUCUUCUGUUGAUAUGGAUGCAGUUCACAGACUAAAUGUCGGUCGGGGAAGAUGUAUUCUUCUCAUAAGAUAUAGUCGGACCUCUCCUUAAUGGGAGCUAGCGGAUGAAGUGAUGCAACACUGGAGCCGCUGGGAACUAAUUUGUAUGCGAAAGUAUAUUGAUUAGUUUUGGAGUACUCGUGGUCG
Outline: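 A randomised library covering all eight P1ex-region intron nucleotides was built with the intron in the knt kanamycin-resistance gene on pET-22b(+) and held in E. coli BL21(DE3). Cells were grown overnight at 37°C or 30°C on LB agar, with or without 25 μg/mL kanamycin, plus 100 μg/mL carbenicillin, 50 μM IPTG and 0.2% rhamnose, and pooled colonies were amplicon-sequenced on an Illumina HiSeq 2500. DiMSum fitness is the error-weighted combination of wild-type-normalised replicate fold changes, kanamycin versus none.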

Sequence | self-splicing fitness (ln) (30 °C) | self-splicing fitness (ln) (37 °C)
GGGAAGCAAUAUUACGAUGU | -1.02 ± 0.083 | -0.0643 ± 0.1
GGGAAGCAAUAUUACGCCCA | -0.527 ± 0.15 | -0.717 ± 0.21
GGGAAGCAAUAUUACGCGAC | -2.77 ± 0.37 | -1.5 ± 0.32
GGGAAGCAAUAUUACGGAAG | -0.00595 ± 0.22 | -1.47 ± 0.39
GGGAAGCAAUAUUACGGCAC | 0.0244 ± 0.3 | -0.976 ± 0.36
GGGAAGCAAUAUUACGGCCG | -0.164 ± 0.12 | -0.0913 ± 0.15
GGGAAGCAAUAUUACGGUAC | -1.47 ± 0.25 | -1.08 ± 0.27
GGGAAGCAAUAUUACGUCGA | -0.874 ± 0.12 | -0.739 ± 0.13
GGGAAGCAAUAUUACGUCGU | -0.671 ± 0.16 | -0.462 ± 0.16
GGGAAGCAAUAUUACGUGAC | -1.99 ± 0.18 | 0.336 ± 0.21
GGGAAGCAAUAUUACGUGUG | -1.15 ± 0.097 | -1.24 ± 0.13
GGGAAGCAAUAUUACGUUUC | -3.58 ± 0.19 | -2.19 ± 0.29
GGGCAGCAAUAUUACGAACC | -0.749 ± 0.29 | -0.806 ± 0.31
GGGCAGCAAUAUUACGAAGU | -1.95 ± 0.14 | -0.794 ± 0.21
GGGCAGCAAUAUUACGACCU | -1.88 ± 0.28 | -1.26 ± 0.44
GGGCAGCAAUAUUACGAUAG | -3.54 ± 0.2 | -2.43 ± 0.22
GGGCAGCAAUAUUACGCCAG | -2.02 ± 0.1 | -0.684 ± 0.13
GGGCAGCAAUAUUACGCCUC |  | -1.42 ± 0.31
GGGCAGCAAUAUUACGCUCA | -1.09 ± 0.094 | -0.272 ± 0.16
GGGCAGCAAUAUUACGCUGU | -2.65 ± 0.29 | -1.21 ± 0.21
GGGCAGCAAUAUUACGGCGG | -1.76 ± 0.12 | -1.99 ± 0.17
GGGCAGCAAUAUUACGGGAA | -2.67 ± 0.31 | -2.7 ± 0.32
GGGCAGCAAUAUUACGGUAA | -1.69 ± 0.27 | -0.663 ± 0.19
GGGCAGCAAUAUUACGGUCG | -0.993 ± 0.076 | -0.0756 ± 0.12
GGGCAGCAAUAUUACGGUGA | -0.844 ± 0.074 | -0.671 ± 0.088
GGGCAGCAAUAUUACGGUUA | -0.537 ± 0.097 | -0.339 ± 0.089

Sequence | self-splicing fitness (ln) (30 °C) | self-splicing fitness (ln) (37 °C)
GGGCAGCAAUAUUACGGUUU | -0.465 ± 0.065 | -0.681 ± 0.071
GGGCAGCAAUAUUACGUACC | -1.88 ± 0.31 | -1.39 ± 0.48
GGGCAGCAAUAUUACGUCUU | -0.531 ± 0.081 | 0.0306 ± 0.098
GGGCAGCAAUAUUACGUGGA | -2.81 ± 0.11 | -1.62 ± 0.099
GGGCAGCAAUAUUACGUGGU | -2.88 ± 0.17 | -1.58 ± 0.13
GGGCAGCAAUAUUACGUUGC | -3.77 ± 0.16 | -1.95 ± 0.19
GGGCAGCAAUAUUACGUUUU | -0.77 ± 0.046 | 0.221 ± 0.063
GGGGAGCAAUAUUACGAGCG | -2.37 ± 0.25 | -1.53 ± 0.22
GGGGAGCAAUAUUACGAUAU | -2.95 ± 0.4 | -0.987 ± 0.24
GGGGAGCAAUAUUACGCGAU |  | -0.791 ± 0.24
GGGGAGCAAUAUUACGCGUA | -1.53 ± 0.38 | -1.13 ± 0.3
GGGGAGCAAUAUUACGCGUU | -2.88 ± 0.13 | -1.04 ± 0.14
GGGGAGCAAUAUUACGCUGC | -2.22 ± 0.45 | 
GGGGAGCAAUAUUACGGACU | 0.0915 ± 0.28 | -0.621 ± 0.22
GGGGAGCAAUAUUACGGCCA | -0.941 ± 0.2 | 0.555 ± 0.21
GGGGAGCAAUAUUACGGGGC | -2.92 ± 0.37 | -2.2 ± 0.27
GGGGAGCAAUAUUACGGUAU |  | -2.23 ± 0.39
GGGGAGCAAUAUUACGGUUA | -1.34 ± 0.26 | -2.75 ± 0.31
GGGGAGCAAUAUUACGUACA | -1.75 ± 0.2 | -1.76 ± 0.49
GGGGAGCAAUAUUACGUCGG |  | -1.07 ± 0.36
GGGGAGCAAUAUUACGUGCA | -3.32 ± 0.25 | -1.08 ± 0.17
GGGGAGCAAUAUUACGUGCG | -1.61 ± 0.14 | -1.54 ± 0.27
GGGGAGCAAUAUUACGUUCU | -2.67 ± 0.43 | -0.226 ± 0.35
GGGUAGCAAUAUUACGAACA |  | -0.706 ± 0.39
GGGUAGCAAUAUUACGACUG | 0.0705 ± 0.13 | 0.222 ± 0.18
GGGUAGCAAUAUUACGACUU | -1.03 ± 0.13 | 0.345 ± 0.16

Sequence | self-splicing fitness (ln) (30 °C) | self-splicing fitness (ln) (37 °C)
GGGUAGCAAUAUUACGCACU | -3.8 ± 0.47 | -0.577 ± 0.29
GGGUAGCAAUAUUACGCCAA | -0.499 ± 0.16 | -0.0896 ± 0.15
GGGUAGCAAUAUUACGCGGU | -3.15 ± 0.21 | -1.4 ± 0.2
GGGUAGCAAUAUUACGCUAG |  | -1.24 ± 0.26
GGGUAGCAAUAUUACGGAAG | -3.46 ± 0.35 | -1.87 ± 0.45
GGGUAGCAAUAUUACGGCGG | -2.35 ± 0.24 | -2.12 ± 0.28
GGGUAGCAAUAUUACGGCGU | -0.56 ± 0.13 | -0.386 ± 0.12
GGGUAGCAAUAUUACGGGGG | -2.97 ± 0.24 | -2.09 ± 0.25
GGGUAGCAAUAUUACGGUAA | -1.28 ± 0.12 | -0.587 ± 0.1
GGGUAGCAAUAUUACGGUAC | -2.04 ± 0.12 | -0.23 ± 0.15
GGGUAGCAAUAUUACGGUGA | -1.74 ± 0.19 | 0.155 ± 0.16
GGGUAGCAAUAUUACGUAAC | -1.07 ± 0.15 | -0.795 ± 0.22
GGGUAGCAAUAUUACGUCAU | -0.733 ± 0.07 | -0.742 ± 0.081
GGGUAGCAAUAUUACGUCCC | -0.987 ± 0.29 | 
GGGUAGCAAUAUUACGUGAU | -2.64 ± 0.19 | -0.239 ± 0.18
GGGUAGCAAUAUUACGUUGA | -2.44 ± 0.16 | -0.495 ± 0.11
GGUAAGCAAUAUUACGAAAG | -3.68 ± 0.47 | 
GGUAAGCAAUAUUACGAAUA | -1.25 ± 0.26 | -0.561 ± 0.27
GGUAAGCAAUAUUACGACAC | -0.00191 ± 0.13 | 0.285 ± 0.19
GGUAAGCAAUAUUACGAGAC | -1.71 ± 0.39 | -0.652 ± 0.27
GGUAAGCAAUAUUACGAUUA | -0.734 ± 0.094 | -0.221 ± 0.11
GGUAAGCAAUAUUACGCUCU | -3.29 ± 0.32 | -2.16 ± 0.35
GGUAAGCAAUAUUACGGAAC | -1.55 ± 0.17 | -0.543 ± 0.21
GGUAAGCAAUAUUACGGACA | -0.53 ± 0.13 | -0.0615 ± 0.15
GGUAAGCAAUAUUACGGCAG | -3.62 ± 0.43 | -2.49 ± 0.45
GGUAAGCAAUAUUACGGUCA | -0.727 ± 0.1 | 0.416 ± 0.11
